Experimental data reported in the supplement of paper PMC7877785.
± gives the uncertainty stated by the source.

Experiment: self-splicing fitness, log relative to wild type (ln ratio); higher = more splicing; Tetrahymena group I intron in knt gene, E. coli kanamycin selection, DiMSum; sequences stand for … in CUCUCU…GGAGGGAAAAGUUAUCAGGCAUGCACCUGGUAGCUAGUCUUUAAACCAAUAGAUUGCAUCGGUUUAAAAGGCAAGACCGUCAAAUUGCGGGAAAGGGGUCAACAGCCGUUCAGUACCAAGUCUCAGGGGAAACUUUGAGAUGGCCUUGCAAAGGGUAUGGUAAUAAGCUGACGGACAUGGUCCUAACCACGCAGCCAAGUCCUAAGUCAACAGAUCUUCUGUUGAUAUGGAUGCAGUUCACAGACUAAAUGUCGGUCGGGGAAGAUGUAUUCUUCUCAUAAGAUAUAGUCGGACCUCUCCUUAAUGGGAGCUAGCGGAUGAAGUGAUGCAACACUGGAGCCGCUGGGAACUAAUUUGUAUGCGAAAGUAUAUUGAUUAGUUUUGGAGUACUCGUGGUCG
Method in brief: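 Fitness was computed with DiMSum as the error-weighted combination of replicate fold changes, kanamycin versus none, each normalised to wild type. The library randomised all eight intron nucleotides of the P1ex region, with the intron placed in the knt kanamycin-resistance gene on pET-22b(+) in E. coli BL21(DE3). Six replicate transformations were grown overnight at 37°C or 30°C on LB agar with or without 25 μg/mL kanamycin, plus 100 μg/mL carbenicillin, 50 μM IPTG and 0.2% rhamnose. Pooled colonies were amplicon-sequenced on an Illumina HiSeq 2500.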

Sequence | self-splicing fitness (ln) (30 °C) | self-splicing fitness (ln) (37 °C)
CAAUAGCAAUAUUACGAGUC | -4.09 ± 0.34 | -2.75 ± 0.28
CAAUAGCAAUAUUACGCAAC | -3.75 ± 0.34 | -1.91 ± 0.39
CAAUAGCAAUAUUACGCAAU | -3.23 ± 0.34 | -2.09 ± 0.28
CAAUAGCAAUAUUACGCCCG | -0.472 ± 0.17 | -0.0129 ± 0.23
CAAUAGCAAUAUUACGCGCA | -2.68 ± 0.19 | -1.7 ± 0.18
CAAUAGCAAUAUUACGCGCU | -3.61 ± 0.18 | -2.18 ± 0.18
CAAUAGCAAUAUUACGCGGC | -3.91 ± 0.37 | 
CAAUAGCAAUAUUACGCGUA | -2.09 ± 0.18 | -1.85 ± 0.23
CAAUAGCAAUAUUACGCGUU | -2.98 ± 0.09 | -2.42 ± 0.1
CAAUAGCAAUAUUACGGAGC | -2.48 ± 0.22 | -2.53 ± 0.45
CAAUAGCAAUAUUACGGAUC | -3.15 ± 0.37 | 
CAAUAGCAAUAUUACGGGCA | -2.46 ± 0.28 | -2.89 ± 0.25
CAAUAGCAAUAUUACGGUGC | -3.75 ± 0.23 | -3.67 ± 0.29
CAAUAGCAAUAUUACGUAAA | -2.68 ± 0.28 | -2.27 ± 0.4
CAAUAGCAAUAUUACGUACG | -0.451 ± 0.063 | -0.069 ± 0.078
CAAUAGCAAUAUUACGUCAC | -2.04 ± 0.2 | -2.71 ± 0.43
CAAUAGCAAUAUUACGUGAC | -3.84 ± 0.25 | -2.21 ± 0.22
CAAUAGCAAUAUUACGUGCA | -2.72 ± 0.19 | -1.27 ± 0.15
CAAUAGCAAUAUUACGUGUC | -3.97 ± 0.18 | -3.28 ± 0.21
CAAUAGCAAUAUUACGUUAA | -2.95 ± 0.18 | -2.8 ± 0.23
CACAAGCAAUAUUACGAGAC | -3.08 ± 0.17 | -2.51 ± 0.17
CACAAGCAAUAUUACGAGAG | -3.2 ± 0.12 | -1.32 ± 0.085
CACAAGCAAUAUUACGAUAA | -4.26 ± 0.33 | -2.22 ± 0.16
CACAAGCAAUAUUACGAUCA | -2.43 ± 0.11 | -1.55 ± 0.12
CACAAGCAAUAUUACGCAAA | -3.29 ± 0.23 | -2.46 ± 0.28

Sequence | self-splicing fitness (ln) (30 °C) | self-splicing fitness (ln) (37 °C)
CACAAGCAAUAUUACGCACG | -0.378 ± 0.067 | -0.684 ± 0.075
CACAAGCAAUAUUACGCGGC | -3.25 ± 0.19 | -2.98 ± 0.23
CACAAGCAAUAUUACGCGGG | -3 ± 0.14 | -0.984 ± 0.12
CACAAGCAAUAUUACGCUUG | -3.66 ± 0.18 | -1.77 ± 0.15
CACAAGCAAUAUUACGGAAU | -4.1 ± 0.21 | -2.28 ± 0.16
CACAAGCAAUAUUACGGCCC | -2.49 ± 0.22 | -1.82 ± 0.31
CACAAGCAAUAUUACGGCUA | -2.02 ± 0.12 | -1.26 ± 0.11
CACAAGCAAUAUUACGGGAG | -1.55 ± 0.065 | -1.46 ± 0.076
CACAAGCAAUAUUACGGUCG | 0.139 ± 0.054 | 0.219 ± 0.064
CACAAGCAAUAUUACGGUCU | -2.76 ± 0.1 | -1.99 ± 0.12
CACAAGCAAUAUUACGUACA | -3.03 ± 0.1 | -1.46 ± 0.1
CACAAGCAAUAUUACGUAGC | -4 ± 0.12 | -2.59 ± 0.13
CACAAGCAAUAUUACGUAUC | -4.88 ± 0.25 | -2.19 ± 0.15
CACAAGCAAUAUUACGUGAA | -4.27 ± 0.25 | -2.39 ± 0.21
CACAAGCAAUAUUACGUUAC | -4.46 ± 0.34 | -3.12 ± 0.36
CACCAGCAAUAUUACGAAUA | -3.93 ± 0.21 | -2.62 ± 0.16
CACCAGCAAUAUUACGACCC | -3.82 ± 0.25 | -2.98 ± 0.28
CACCAGCAAUAUUACGACGC | -3.22 ± 0.19 | -1.39 ± 0.16
CACCAGCAAUAUUACGACGU | -2.58 ± 0.096 | -1.11 ± 0.099
CACCAGCAAUAUUACGAGGG | -2.81 ± 0.088 | -1.79 ± 0.093
CACCAGCAAUAUUACGAGGU | -3.22 ± 0.12 | -2.53 ± 0.16
CACCAGCAAUAUUACGAUAA | -4.88 ± 0.31 | -2.14 ± 0.19
CACCAGCAAUAUUACGCAAA | -4.2 ± 0.27 | -2.99 ± 0.2
CACCAGCAAUAUUACGCCAG | -0.583 ± 0.075 | 0.205 ± 0.097
CACCAGCAAUAUUACGCCCG | -0.197 ± 0.14 | 0.343 ± 0.19

Sequence | self-splicing fitness (ln) (30 °C) | self-splicing fitness (ln) (37 °C)
CACCAGCAAUAUUACGCUUG | -1.06 ± 0.052 | -0.22 ± 0.069
CACCAGCAAUAUUACGGAGU | -3.74 ± 0.18 | -2.54 ± 0.15
CACCAGCAAUAUUACGGCCC | -1.8 ± 0.17 | -0.352 ± 0.19
CACCAGCAAUAUUACGGGGG | -3.36 ± 0.11 | -2.64 ± 0.18
CACCAGCAAUAUUACGGUAG | -1.97 ± 0.063 | -1.69 ± 0.09
CACCAGCAAUAUUACGGUCA | -0.569 ± 0.05 | 0.174 ± 0.062
CACCAGCAAUAUUACGUAAG | 0.114 ± 0.041 | 0.336 ± 0.061
CACCAGCAAUAUUACGUACC | -4.01 ± 0.43 | -1.84 ± 0.33
CACCAGCAAUAUUACGUAGC | -4.18 ± 0.17 | -2.41 ± 0.14
CACCAGCAAUAUUACGUCGA | -1.89 ± 0.086 | -0.942 ± 0.088
CACCAGCAAUAUUACGUGCG | -0.627 ± 0.04 | -0.299 ± 0.056
CACCAGCAAUAUUACGUUAG | -0.512 ± 0.048 | 0.279 ± 0.064
CACCAGCAAUAUUACGUUAU | -3.86 ± 0.12 | -3.32 ± 0.15
CACCAGCAAUAUUACGUUUG | -0.595 ± 0.043 | -0.00269 ± 0.064
CACGAGCAAUAUUACGAAGU | -1.68 ± 0.13 | -2.23 ± 0.19
CACGAGCAAUAUUACGAAUU | -4.81 ± 0.41 | -2.25 ± 0.21
CACGAGCAAUAUUACGACGG | -1.6 ± 0.13 | -0.392 ± 0.14
CACGAGCAAUAUUACGACGU | -3.25 ± 0.17 | -3.34 ± 0.23
CACGAGCAAUAUUACGACUA | -2.71 ± 0.21 | -1.85 ± 0.15
CACGAGCAAUAUUACGAGAA |  | -1.61 ± 0.44
CACGAGCAAUAUUACGAGAC | -2.99 ± 0.2 | -1.89 ± 0.3
CACGAGCAAUAUUACGAUAG | -3.14 ± 0.15 | -1.6 ± 0.18
CACGAGCAAUAUUACGCACA | -2.74 ± 0.19 | -1.17 ± 0.15
CACGAGCAAUAUUACGCAUC | -1.74 ± 0.34 | 
CACGAGCAAUAUUACGCCCG | -1.88 ± 0.29 | -1.9 ± 0.28

Sequence | self-splicing fitness (ln) (30 °C) | self-splicing fitness (ln) (37 °C)
CACGAGCAAUAUUACGCGAC |  | -2.76 ± 0.27
CACGAGCAAUAUUACGCGCC |  | -0.83 ± 0.48
CACGAGCAAUAUUACGCGCG | -2.9 ± 0.24 | -1.25 ± 0.18
CACGAGCAAUAUUACGCGGG | -4.05 ± 0.26 | -2.88 ± 0.26
CACGAGCAAUAUUACGCGUG | -2.79 ± 0.19 | -2.97 ± 0.38
CACGAGCAAUAUUACGGGAU | -3.52 ± 0.28 | -2.33 ± 0.21
CACGAGCAAUAUUACGGGCA | -2.84 ± 0.31 | 
CACGAGCAAUAUUACGGGUA | -3.26 ± 0.18 | -2.02 ± 0.16
CACGAGCAAUAUUACGUCGU | -2.05 ± 0.14 | -3.43 ± 0.24
CACGAGCAAUAUUACGUCUG | -2.32 ± 0.095 | -0.929 ± 0.092
CACGAGCAAUAUUACGUGGG | -4.45 ± 0.29 | -2.71 ± 0.18
CACUAGCAAUAUUACGAAAA | -3.29 ± 0.33 | -1.87 ± 0.26
CACUAGCAAUAUUACGAAGA | -3.05 ± 0.24 | -2.27 ± 0.2
CACUAGCAAUAUUACGAGAA | -2.74 ± 0.43 | -1.67 ± 0.28
CACUAGCAAUAUUACGAGAG | -3.21 ± 0.2 | -1.73 ± 0.14
CACUAGCAAUAUUACGCAAG | -2.39 ± 0.098 | -1.43 ± 0.12
CACUAGCAAUAUUACGCGAA | -2.72 ± 0.19 | -2.74 ± 0.2
CACUAGCAAUAUUACGCGCG | -1.1 ± 0.11 | -0.054 ± 0.14
CACUAGCAAUAUUACGCGUU | -2.86 ± 0.13 | -0.877 ± 0.11
CACUAGCAAUAUUACGCUAA | -3.33 ± 0.3 | -1.75 ± 0.19
CACUAGCAAUAUUACGCUUG | -2.03 ± 0.16 | -0.991 ± 0.13
CACUAGCAAUAUUACGGCAU | -4.16 ± 0.19 | -1.55 ± 0.14
